This experiment deals with SARS-CoV-2 S glycoprotein, full length, expressed at the surface of ExpiCHO cells (SARS-CoV-2 (isolate BetaCoV/Wuhan-Hu-1/2019)) (UniProt P0DTC2).

S309 Fab fragment had a neutralization of SARS-CoV-2-MLV pseudovirus (transduction), IC50 of 3.8 nM and a neutralization of SARS-CoV-2-MLV pseudovirus, plateau of neutralization of 80%.
Substance “S309 full-length IgG1 (rIgG-LS) (antibody)” gave a neutralization of SARS-CoV-2-MLV pseudovirus (transduction), IC50 of 3.5 nM and a neutralization of SARS-CoV-2-MLV pseudovirus, maximal neutralization of 100%.

The values above are taken from article doi:10.1101/2020.04.07.023903.
